A short description of the series: MalA biochemical activity assays, mutants versus wild-type MalA. As to conditions: for site-selectivity of chlorination: chlorination of compound 2, C8 versus C9; for halogenase activity relative to wild-type MalA: chlorination of compound 2. The procedure: Biochemical activity assays were performed in a 100 μL volume with the following components: 18 μM MalA, 54 μM HpaC flavin reductase,^3 100 μM FAD, 50 mM NaCl, 250 μM substrate, 5 mM NADH, and brought to total volume with reaction buffer (same as storage bufferNaBr). The chlorination reactions proceeded for 20 minutes and the bromination reactions proceeded overnight. The reactions were extracted with ethyl acetate ([…], in triplicate) and dried down under nitrogen gas. The dried extract was resuspended in LC/MS grade methanol to a concentration of around 10 μM for LC/MS analysis. High resolution mass spectrometry was performed using electrospray ionization on an Agilent quadrupole time-of-flight spectrometer (Q-TOF 6500 series). Biochemical activity was monitored via the following HPLC method using acetonitrile and water: 65% acetonitrile for 5 minutes, gradient over 10 minutes to 95% acetonitrile, 95% acetonitrile for 5 minutes, gradient over 2 minutes to 65% acetonitrile, 65% acetonitrile for 11 minutes to re-equilibrate with a flow rate of 0.3 mL/minute, monitoring at 240 nm on a Phenomenex Lux cellulose-3, cellulose Tris (4-methylbenzoate) 250×4.6 mm column.

B1: MalA H253F: MalA halogenase variant, His253 substituted with phenylalanine (protein, UniProt L0E155 1-667, looked up, variant H253F)
Flavin-dependent halogenase …: MAPTPKYTFTERAAAGNLSDAEILNSNNPTGSELPDESDVVVGGAGIHGLIYALHASKYKPNNLKISVIEKNTRPGYKIGESTLPIFYTWCKLHGISAAYLLRLFGLKDGLCFYFLDRENQGQYTDFCSVGAPGLVLASLQIERPMSELLFTILAQRNGVNVYHGREVDFKSTVVQGGGQGNKIAVSRGKYDSTPKTIDSALFVDATGRFRQFCSKKAPRHRFDGWNCNAFWGYFTAPKDESKIPFDLYEGDFTNHLCFPEGWVWVIRLPSWEGSLIANLMDMVTYILECADAGVPGDELPSSEELARMFGLKFQWVTSIGFAVRNDVKYPEDLSAYGTREAEQKFNYFVQKYELLQQFMSNFELIENLYGPGTTWFIRKTLAYQSPVVSGPGWLAIGDACGFTNPLYSPGINVGMSTSTWAAQLSHRIVEIGKSAPADAAESSIRKLLVPYDDYCKSLVPALEQMNRFNYVCYRDTRLGPQVACLWQFFAGIERYLSDVNIETFAHYAIKWVWGAMVPEYQQVAQKCIEHIETVPLDERLPDAMVDELLAFSNRIKSAAVAADDFSLRWDAILRSFDRSLNFVEGKTSRDIYTRQCSGCGAWLQLRPDWKKCHSCGLLGTEPQTAVTFDPPLTAEEEALLYAAWNTAPKYDPSKELKLPTPTRPAA
Regarding B1, the site-selectivity of chlorination result is on record as “selectivity for producing the C8-chlorinated compound 4”. For the same molecule, the “site-selectivity profile of bromination” value (bromination of compound 2) is given as “same product profile as the wild-type MalA”.

B2: MalA G131S: C9-selective MalA halogenase mutant (protein, UniProt L0E155 1-667, looked up, variant G131S)
Flavin-dependent halogenase …: MAPTPKYTFTERAAAGNLSDAEILNSNNPTGSELPDESDVVVGGAGIHGLIYALHASKYKPNNLKISVIEKNTRPGYKIGESTLPIFYTWCKLHGISAAYLLRLFGLKDGLCFYFLDRENQGQYTDFCSVSAPGLVLASLQIERPMSELLFTILAQRNGVNVYHGREVDFKSTVVQGGGQGNKIAVSRGKYDSTPKTIDSALFVDATGRFRQFCSKKAPRHRFDGWNCNAFWGYFTAPKDESKIPFDLYEGDHTNHLCFPEGWVWVIRLPSWEGSLIANLMDMVTYILECADAGVPGDELPSSEELARMFGLKFQWVTSIGFAVRNDVKYPEDLSAYGTREAEQKFNYFVQKYELLQQFMSNFELIENLYGPGTTWFIRKTLAYQSPVVSGPGWLAIGDACGFTNPLYSPGINVGMSTSTWAAQLSHRIVEIGKSAPADAAESSIRKLLVPYDDYCKSLVPALEQMNRFNYVCYRDTRLGPQVACLWQFFAGIERYLSDVNIETFAHYAIKWVWGAMVPEYQQVAQKCIEHIETVPLDERLPDAMVDELLAFSNRIKSAAVAADDFSLRWDAILRSFDRSLNFVEGKTSRDIYTRQCSGCGAWLQLRPDWKKCHSCGLLGTEPQTAVTFDPPLTAEEEALLYAAWNTAPKYDPSKELKLPTPTRPAA
B2: the site-selectivity of chlorination entry is reported as “C9-selective”.

B3: S129A/I493S: C9-selective MalA halogenase double mutant (protein, listed as Malbranchea aurantiaca)
chain: MAPTPKYTFTERAAAGNLSDAEILNSNNPTGSELPDESDVVVGGAGIHGLIYALHASKYKPNNLKISVIEKNTRPGYKIGESTLPIFYTWCKLHGISAAYLLRLFGLKDGLCFYFLDRENQGQYTDFCAVGAPGLVLASLQIERPMSELLFTILAQRNGVNVYHGREVDFKSTVVQGGGQGNKIAVSRGKYDSTPKTIDSALFVDATGRFRQFCSKKAPRHRFDGWNCNAFWGYFTAPKDESKIPFDLYEGDHTNHLCFPEGWVWVIRLPSWEGSLIANLMDMVTYILECADAGVPGDELPSSEELARMFGLKFQWVTSIGFAVRNDVKYPEDLSAYGTREAEQKFNYFVQKYELLQQFMSNFELIENLYGPGTTWFIRKTLAYQSPVVSGPGWLAIGDACGFTNPLYSPGINVGMSTSTWAAQLSHRIVEIGKSAPADAAESSIRKLLVPYDDYCKSLVPALEQMNRFNYVCYRDTRLGPQVACLWQFFAGSERYLSDVNIETFAHYAIKWVWGAMVPEYQQVAQKCIEHIETVPLDERLPDAMVDELLAFSNRIKSAAVAADDFSLRWDAILRSFDRSLNFVEGKTSRDIYTRQCSGCGAWLQLRPDWKKCHSCGLLGTEPQTAVTFDPPLTAEEEALLYAAWNTAPKYDPSKELKLPTPTRPAA
modifications: MalA (S129A/I493S) protein
As to B3, the site-selectivity of chlorination result is recorded as “C9-selective”.

B4: MalA K108A: MalA halogenase mutant of the catalytic lysine Lys108 (protein, UniProt L0E155 1-667, looked up, variant K108A)
Flavin-dependent halogenase …: MAPTPKYTFTERAAAGNLSDAEILNSNNPTGSELPDESDVVVGGAGIHGLIYALHASKYKPNNLKISVIEKNTRPGYKIGESTLPIFYTWCKLHGISAAYLLRLFGLADGLCFYFLDRENQGQYTDFCSVGAPGLVLASLQIERPMSELLFTILAQRNGVNVYHGREVDFKSTVVQGGGQGNKIAVSRGKYDSTPKTIDSALFVDATGRFRQFCSKKAPRHRFDGWNCNAFWGYFTAPKDESKIPFDLYEGDHTNHLCFPEGWVWVIRLPSWEGSLIANLMDMVTYILECADAGVPGDELPSSEELARMFGLKFQWVTSIGFAVRNDVKYPEDLSAYGTREAEQKFNYFVQKYELLQQFMSNFELIENLYGPGTTWFIRKTLAYQSPVVSGPGWLAIGDACGFTNPLYSPGINVGMSTSTWAAQLSHRIVEIGKSAPADAAESSIRKLLVPYDDYCKSLVPALEQMNRFNYVCYRDTRLGPQVACLWQFFAGIERYLSDVNIETFAHYAIKWVWGAMVPEYQQVAQKCIEHIETVPLDERLPDAMVDELLAFSNRIKSAAVAADDFSLRWDAILRSFDRSLNFVEGKTSRDIYTRQCSGCGAWLQLRPDWKKCHSCGLLGTEPQTAVTFDPPLTAEEEALLYAAWNTAPKYDPSKELKLPTPTRPAA
Take B4: the “halogenase activity relative to wild-type MalA” value is “inactive”.

B5: MalA F489H: MalA halogenase variant, Phe489 substituted with histidine (protein, UniProt L0E155 1-667, looked up, variant F489H)
Flavin-dependent halogenase …: MAPTPKYTFTERAAAGNLSDAEILNSNNPTGSELPDESDVVVGGAGIHGLIYALHASKYKPNNLKISVIEKNTRPGYKIGESTLPIFYTWCKLHGISAAYLLRLFGLKDGLCFYFLDRENQGQYTDFCSVGAPGLVLASLQIERPMSELLFTILAQRNGVNVYHGREVDFKSTVVQGGGQGNKIAVSRGKYDSTPKTIDSALFVDATGRFRQFCSKKAPRHRFDGWNCNAFWGYFTAPKDESKIPFDLYEGDHTNHLCFPEGWVWVIRLPSWEGSLIANLMDMVTYILECADAGVPGDELPSSEELARMFGLKFQWVTSIGFAVRNDVKYPEDLSAYGTREAEQKFNYFVQKYELLQQFMSNFELIENLYGPGTTWFIRKTLAYQSPVVSGPGWLAIGDACGFTNPLYSPGINVGMSTSTWAAQLSHRIVEIGKSAPADAAESSIRKLLVPYDDYCKSLVPALEQMNRFNYVCYRDTRLGPQVACLWQHFAGIERYLSDVNIETFAHYAIKWVWGAMVPEYQQVAQKCIEHIETVPLDERLPDAMVDELLAFSNRIKSAAVAADDFSLRWDAILRSFDRSLNFVEGKTSRDIYTRQCSGCGAWLQLRPDWKKCHSCGLLGTEPQTAVTFDPPLTAEEEALLYAAWNTAPKYDPSKELKLPTPTRPAA
Consider B5, for which the “halogenase activity relative to wild-type MalA” value is “significantly decreased”.

B6: MalA S129 Å/P85S: C8-selective MalA halogenase double mutant (protein, UniProt L0E155 1-667, looked up, variant S129A P85S)
Flavin-dependent halogenase …: MAPTPKYTFTERAAAGNLSDAEILNSNNPTGSELPDESDVVVGGAGIHGLIYALHASKYKPNNLKISVIEKNTRPGYKIGESTLSIFYTWCKLHGISAAYLLRLFGLKDGLCFYFLDRENQGQYTDFCAVGAPGLVLASLQIERPMSELLFTILAQRNGVNVYHGREVDFKSTVVQGGGQGNKIAVSRGKYDSTPKTIDSALFVDATGRFRQFCSKKAPRHRFDGWNCNAFWGYFTAPKDESKIPFDLYEGDHTNHLCFPEGWVWVIRLPSWEGSLIANLMDMVTYILECADAGVPGDELPSSEELARMFGLKFQWVTSIGFAVRNDVKYPEDLSAYGTREAEQKFNYFVQKYELLQQFMSNFELIENLYGPGTTWFIRKTLAYQSPVVSGPGWLAIGDACGFTNPLYSPGINVGMSTSTWAAQLSHRIVEIGKSAPADAAESSIRKLLVPYDDYCKSLVPALEQMNRFNYVCYRDTRLGPQVACLWQFFAGIERYLSDVNIETFAHYAIKWVWGAMVPEYQQVAQKCIEHIETVPLDERLPDAMVDELLAFSNRIKSAAVAADDFSLRWDAILRSFDRSLNFVEGKTSRDIYTRQCSGCGAWLQLRPDWKKCHSCGLLGTEPQTAVTFDPPLTAEEEALLYAAWNTAPKYDPSKELKLPTPTRPAA
As to B6, the site-selectivity of chlorination entry is recorded as “C8-selective”.

B7: D109A: MalA halogenase D109A mutant (protein, listed as Malbranchea aurantiaca)
chain: MAPTPKYTFTERAAAGNLSDAEILNSNNPTGSELPDESDVVVGGAGIHGLIYALHASKYKPNNLKISVIEKNTRPGYKIGESTLPIFYTWCKLHGISAAYLLRLFGLKAGLCFYFLDRENQGQYTDFCSVGAPGLVLASLQIERPMSELLFTILAQRNGVNVYHGREVDFKSTVVQGGGQGNKIAVSRGKYDSTPKTIDSALFVDATGRFRQFCSKKAPRHRFDGWNCNAFWGYFTAPKDESKIPFDLYEGDHTNHLCFPEGWVWVIRLPSWEGSLIANLMDMVTYILECADAGVPGDELPSSEELARMFGLKFQWVTSIGFAVRNDVKYPEDLSAYGTREAEQKFNYFVQKYELLQQFMSNFELIENLYGPGTTWFIRKTLAYQSPVVSGPGWLAIGDACGFTNPLYSPGINVGMSTSTWAAQLSHRIVEIGKSAPADAAESSIRKLLVPYDDYCKSLVPALEQMNRFNYVCYRDTRLGPQVACLWQFFAGIERYLSDVNIETFAHYAIKWVWGAMVPEYQQVAQKCIEHIETVPLDERLPDAMVDELLAFSNRIKSAAVAADDFSLRWDAILRSFDRSLNFVEGKTSRDIYTRQCSGCGAWLQLRPDWKKCHSCGLLGTEPQTAVTFDPPLTAEEEALLYAAWNTAPKYDPSKELKLPTPTRPAA
modifications: Wild-type MalA protein
notes: MalA halogenase D109A mutant
Regarding B7, the “halogenase activity relative to wild-type MalA” value was “very low activity”.

For the origin of these results see US12252714B2, “Halogenation of complex organic compounds” (REGENTS OF THE UNIVERSITY OF MICHIGAN, priority 2018, dated 2025).
